T1: human p40 single mutant M23T (human, UniProt P29460 23-328)
T1 construct: Transiently expressed in HEK293E cells; supernatant used
T1 sequence: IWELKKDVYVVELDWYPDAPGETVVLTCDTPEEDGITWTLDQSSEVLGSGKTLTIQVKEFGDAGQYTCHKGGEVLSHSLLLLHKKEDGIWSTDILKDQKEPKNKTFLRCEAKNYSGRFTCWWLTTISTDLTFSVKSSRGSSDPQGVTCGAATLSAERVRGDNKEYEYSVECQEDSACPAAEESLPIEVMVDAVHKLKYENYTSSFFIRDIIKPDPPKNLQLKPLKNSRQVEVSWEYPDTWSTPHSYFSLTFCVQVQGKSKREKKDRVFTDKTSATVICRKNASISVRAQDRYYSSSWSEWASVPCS

T2: human p40 single mutant L40T (human, UniProt P29460 23-328)
T2 construct: Transiently expressed in HEK293E cells; supernatant used
T2 sequence: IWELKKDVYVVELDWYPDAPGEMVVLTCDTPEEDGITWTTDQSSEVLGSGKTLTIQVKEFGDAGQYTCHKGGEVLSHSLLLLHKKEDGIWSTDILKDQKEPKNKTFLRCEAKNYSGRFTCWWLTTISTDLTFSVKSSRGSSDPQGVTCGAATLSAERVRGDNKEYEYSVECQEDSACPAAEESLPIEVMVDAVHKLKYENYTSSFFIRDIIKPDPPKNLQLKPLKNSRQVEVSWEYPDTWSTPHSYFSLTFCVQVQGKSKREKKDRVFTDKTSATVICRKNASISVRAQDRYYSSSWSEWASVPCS

T3: human p40 single mutant S43R (human, UniProt P29460 23-328)
T3 construct: Transiently expressed in HEK293E cells; supernatant used
T3 sequence: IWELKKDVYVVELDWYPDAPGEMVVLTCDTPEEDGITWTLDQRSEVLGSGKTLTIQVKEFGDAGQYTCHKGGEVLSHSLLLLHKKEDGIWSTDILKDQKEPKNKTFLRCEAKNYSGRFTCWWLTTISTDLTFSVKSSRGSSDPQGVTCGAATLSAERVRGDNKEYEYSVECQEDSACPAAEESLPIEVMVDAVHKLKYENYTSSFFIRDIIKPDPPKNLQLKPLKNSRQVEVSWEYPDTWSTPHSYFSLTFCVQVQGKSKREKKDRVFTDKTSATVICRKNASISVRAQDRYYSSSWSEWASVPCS

T4: human p40 single mutant E45A (human, UniProt P29460 23-328)
T4 construct: Transiently expressed in HEK293E cells; supernatant used
T4 sequence: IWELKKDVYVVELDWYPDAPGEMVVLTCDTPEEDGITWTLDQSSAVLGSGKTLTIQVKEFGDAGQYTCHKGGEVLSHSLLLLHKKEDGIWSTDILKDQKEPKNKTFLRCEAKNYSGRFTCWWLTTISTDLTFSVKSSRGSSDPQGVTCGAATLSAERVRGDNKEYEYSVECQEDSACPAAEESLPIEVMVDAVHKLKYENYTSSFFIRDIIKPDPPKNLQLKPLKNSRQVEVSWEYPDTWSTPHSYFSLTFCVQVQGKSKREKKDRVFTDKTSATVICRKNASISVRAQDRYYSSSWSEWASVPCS


Legend:
[1] = target: IL-12 (mouse; target of the rat anti-mouse mAbs C17.8 and C18.2) (mouse) (UniProt P43432); assay: cell-based or functional assay
[2] = target: T1, human p40 single mutant M23T; assay: capture assay, relative binding affinity to p40 muteins (FIG. 4)
Method: (§1) Seven human p40 single mutants, M23T, L40T, S43R, E45A, E45R, E59R, and D62R, and two double mutants, S43R/E45A and S43R/E45R, are used in the studies. The wide-type human p40, WT hu-p40, was used as the control. The p40 mutants were transiently expressed in HEK293E cells. The supernatants were used for binding assays.
(§2) In brief, MSD high bind plates (Meso Scale Discovery, MD) were coated with 5 μl of a capture monoclonal antibody (5 μg/ml) at room temperature for 1 hour. […] One-hundred and fifty (150) μl of 5% MSD Blocker A buffer was added to each well and incubated for 1 hr at room temperature. Plates were washed three times with 0.1 M HEPES buffer (pH 7.4). These protein-charged ELISA plates were incubated with 25 μl of different transiently expressed p40 mutant supernatants (1:10 dilution with 0.1 M HEPES buffer, pH 7.4) for 1 hr at room temperature. The plates were washed three times with 0.1 M HEPES buffer (pH 7.4). Twenty-five (25) μl of different concentrations of MSD Sulfo-TAG labeled p40 mAb, ranging from 0 to 20 μg/ml, were dispensed to micro-wells. After incubation for 2 hrs shaking at room temperature, plates were washed 3 times with 0.1 M HEPES buffer (pH 7.4). One hundred and fifty (150) μl of diluted MSD Read Buffer T was dispensed into each well and the plates were analyzed with a SECTOR imager (MSD).

[3] = target: T2, human p40 single mutant L40T; assay: as above
Method: as §1, §2

[4] = target: T3, human p40 single mutant S43R; assay: as above
Method: as §1, §2

[5] = target: T4, human p40 single mutant E45A; assay: as above
Method: as §1, §2

Sequence of IL-12 (mouse; target of the rat anti-mouse mAbs C17.8 and C18.2) (mouse) (P43432 23-335 limits assumed, chain 1 of 2): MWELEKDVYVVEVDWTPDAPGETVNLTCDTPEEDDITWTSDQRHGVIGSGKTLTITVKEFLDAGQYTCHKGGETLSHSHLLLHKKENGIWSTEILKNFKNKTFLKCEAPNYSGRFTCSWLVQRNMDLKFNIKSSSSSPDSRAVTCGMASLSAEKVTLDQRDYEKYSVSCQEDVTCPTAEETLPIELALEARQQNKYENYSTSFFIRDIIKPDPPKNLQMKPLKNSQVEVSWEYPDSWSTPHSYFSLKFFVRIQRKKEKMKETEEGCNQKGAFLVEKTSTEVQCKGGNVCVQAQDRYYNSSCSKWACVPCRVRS
Sequence of IL-12 (mouse; target of the rat anti-mouse mAbs C17.8 and C18.2) (mouse) (P43431 23-215 limits assumed, chain 2 of 2, further chain): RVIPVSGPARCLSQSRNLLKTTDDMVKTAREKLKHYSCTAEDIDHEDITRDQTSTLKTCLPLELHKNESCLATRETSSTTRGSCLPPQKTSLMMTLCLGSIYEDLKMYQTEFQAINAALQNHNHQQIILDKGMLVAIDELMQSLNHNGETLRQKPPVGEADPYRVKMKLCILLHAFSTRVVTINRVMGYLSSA

in vitro neutralization of IL-12, relative to the anti-p35 mAb (C18.2) (times (versus anti-p35 mAb)) [1] | reduction of binding [2] | reduction of binding [3] | reduction of binding [4] | reduction of binding [5] | Molecule
5 | – | – | – | – | C17.8 (rat anti-mouse IL-12/IL-23p40, IgG2a) (antibody)
– | ~40% | ~40% | ~40% | ~70% | IL-12/IL-23p40 mAb (fully human monoclonal antibody directed against human IL-12/23p40) (antibody, V domains shown, Whole IgG made in a mammalian cell line and purified on protein A; also called IL-12/23p40 mAb; IL-12p40 antibody) VH: EVQLVQSGAEVKKPGESLKISCKGSGYSFTTYWLGWVRQMPGKGLDWIGIMSPVDSDIRYSPSFQGQVTMSVDKSITTAYLQWNSLKASDTAMYYCARRRPGQGYFDFWGQGTLVTVSS VL: DIQMTQSPSSLSASVGDRVTITCRASQGISSWLAWYQQKPEKAPKSLIYAASSLQSGVPSRFSGSGSGTDFTLTISSLQPEDFATYYCQQYNIYPYTFGQGTKLEIKR

From US20090181027A1 (published 2009)
